Assays:
[1] = molecular target: T1, human CD47 tagged with mouse Fc (human, UniProt Q08722 19-139, limits assumed); experiment: ELISA on immobilized recombinant CD47
T1 construct: also called recombinant CD47 antigen
Method: FIG. 7: SIRPα-rituximab bispecific reagents bind to CD47 with reduced affinity relative to anti-CD47 and other bispecific antibody formats. Binding of the indicated antibodies to the recombinant CD47 antigen was measured by ELISA over a range of concentrations. Immobilized human CD47 tagged with mouse Fc was used to capture the indicated antibodies prior to detection with HRP-conjugated antibody directed against the human kappa light chain. Data are representative of three experiments performed in triplicate.

human CD20 [2] = molecular target: T2, human CD20 (human, UniProt P11836 1-297); experiment: flow cytometry on CD20+CD47- YB2/0 cells
T2 construct: whole, on cells; also called MS4A1
T2 sequence (looked up): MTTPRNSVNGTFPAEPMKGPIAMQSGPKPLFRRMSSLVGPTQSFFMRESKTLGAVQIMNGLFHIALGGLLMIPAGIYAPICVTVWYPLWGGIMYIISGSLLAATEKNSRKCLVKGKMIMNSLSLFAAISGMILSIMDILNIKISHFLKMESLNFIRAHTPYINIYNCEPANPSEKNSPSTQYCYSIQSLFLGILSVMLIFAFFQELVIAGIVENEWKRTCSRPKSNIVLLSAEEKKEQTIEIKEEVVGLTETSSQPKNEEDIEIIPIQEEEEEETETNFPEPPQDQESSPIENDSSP
Text: FIG. 3A-3B: SIRPα-rituximab bispecific reagents bind to CD20 on the cell surface. The indicated antibodies were used to stain rat YB2/0 cells engineered to express human CD20, but not human CD47 (CD20+CD47−) prior to detection with anti-human secondary antibody by flow cytometry. 2B8=anti-CD20, B6H12=anti-CD47.

human CD47 = molecular target: T3, human CD47 (human, UniProt Q08722 19-323); experiment: flow cytometry on CD20-CD47+ YB2/0 cells
T3 construct: whole, on cells
Text: FIG. 5A-5B: SIRPα-rituximab bispecific reagents bind to CD47 on the cell surface with reduced affinity relative to anti-CD47. The indicated antibodies were used to stain rat YB2/0 cells engineered to express human CD47, but not human CD20 (CD20−CD47+) prior to detection with fluorescently tagged anti-human secondary antibody by flow cytometry. 2B8=anti-CD20, B6H12=anti-CD47.

human CD20 [3] = molecular target: T2, human CD20; experiment: flow cytometry competition with 10 µg/ml DyLight 488 anti-CD20 on CD20+CD47- YB2/0 cells
Text: FIG. 4: SIRPα-rituximab bispecific reagents bind to CD20 with similar affinity as parental antibody.

Measured: binding result

B1: CD20-2GL-SIRPα (bispecific antibody, human IgG1, kappa)
heavy: not shown
light: QIVLSQSPAILSASPGEKVTMTCRASSSVSYIHWFQQKPGSSPKPWIYATSNLASGVPVRFSGSGSGTSYSLTISRVEAEDAATYYCQQWTSNPPTFGGGTKLEIKRTVAAPSVFIFPPSDEQLKSGTASVVCLLNNFYPREAKVQWKVDNALQSGNSQESVTEQDSKDSTYSLSSTLTLSKADYEKHKVYACEVTHQGLSSPVTKSFNRGEC
notes: Wild type human SIRPα N-terminal Ig fold fused to the C terminus of the rituximab heavy chain through (GGGGS)2; also called CD20-2GL-SIRPα HC; SIRPabody
binds: [1] | human CD20 [2] | human CD47

B2: SIRPα-CD20 (bispecific antibody, human IgG1, kappa)
heavy: not shown
light: QIVLSQSPAILSASPGEKVTMTCRASSSVSYIHWFQQKPGSSPKPWIYATSNLASGVPVRFSGSGSGTSYSLTISRVEAEDAATYYCQQWTSNPPTFGGGTKLEIKRTVAAPSVFIFPPSDEQLKSGTASVVCLLNNFYPREAKVQWKVDNALQSGNSQESVTEQDSKDSTYSLSSTLTLSKADYEKHKVYACEVTHQGLSSPVTKSFNRGEC
notes: also called SIRPabody; SIRPα-rituximab bispecific reagent
binds: [1] | human CD47 | human CD20 [3]

B3: CD20-4GL-SIRPα (bispecific antibody, human IgG1, kappa)
heavy: not shown
light: QIVLSQSPAILSASPGEKVTMTCRASSSVSYIHWFQQKPGSSPKPWIYATSNLASGVPVRFSGSGSGTSYSLTISRVEAEDAATYYCQQWTSNPPTFGGGTKLEIKRTVAAPSVFIFPPSDEQLKSGTASVVCLLNNFYPREAKVQWKVDNALQSGNSQESVTEQDSKDSTYSLSSTLTLSKADYEKHKVYACEVTHQGLSSPVTKSFNRGEC
notes: Wild type human SIRPα N-terminal Ig fold fused to the C terminus of the rituximab heavy chain through (GGGGS)4; also called SIRPabody; SIRPα-rituximab bispecific reagent
binds: [1] | human CD20 [2] | human CD47
